This is an account of results in the DeepSol protein solubility set.

A short description of the series: soluble on expression in E. coli; label from the status in PepcDB or PDB records.
Regarding “MATKLTPKQKAQLDELSMSEKIAILLIQVGEDTTGEILRHLDIDSITEISKQIVQLNGTDKQIGAAVLEEFFAIFQSNQYINTGGLEYARELLTRTLGSEEAKKVMDKLTKSLQTQKNFAYLGKIKPQQLADFIINEHPQTIALILAHMEAPNAAETLSYFPDEMKAEISIRMANLGEISPQVVKRVSTVLENKLESLTSYKIEVGGLRAVAEIFNRLGQKSAKTTLARIESVDNKLAGAIKEMMFTFEDIVKLDNFAIREILKVADKKDLSLALKTSTKDLTDKFLNNMSSRAAEQFVEEMQYLGAVKIKDVDVAQRKIIEIVQSLQEKGVIQTGEEEDVIE”, the “soluble on expression in E. coli” value is recorded as “not soluble”.

Turning to “SLSSPLLPAPVCNPNKAIFTVDAKTTEILVANDKACGLLGYSSQDLIGQKLTQFFLRSDSDVVEALSEEHMEADGHAAVVFGTVVDIISRSGEKIPVSVWMKRMRQERRLCCVVVLEPVER”, the “soluble on expression in E. coli” value is “soluble”.

As to “MAHHHHHHMLLVGFKPCEIVFLVDTLLGSGVSRLPQLFSFFFGGGVHSCARQRKSRKGFAPPNWHPLPRPRRLTAFPYHSQVVAHKRVVRRLLTINNLVFNCCGNLFLPICTLHPKFPFTNDLSQYVVTCEFPPLQLHFSTQAPKNCFRKQLDLVLCSINVAVDVFHPALLRTFRWIC”, the “soluble on expression in E. coli” value is “soluble”. In the case of “MGSDKIHHHHHHMKIALDPYMIRHLPLDRLPHAVAELGYDQIELSPRSDFLDWWVMPRATRARMTAFRHALRASGVGLASLQPMYRWASPFEDERQWAVRCWKKAIEVATEMECALMVSEFGRGASPERSVGERPGANPKELCEAAWFRSMDELLPILERERIVLSVEPHPEDWIEQLQPAIDIVTNLGSPSLKLSYIAPHTFYYGDDMAAMIAQAAPILAHVRVADTFDHRKSSQLRYIVNPPGSNQIRVHQHLDIGQGEIDWDTFFRALGDAGFDGVMSSCVFAWEDRAEASSRYMRDTIQRYVDRHFDRAAAR”, the “soluble on expression in E. coli” value is reported as “not soluble”. The result for “MSSGVPVLHWNFGIGPITCHAWNKDRTQIAVSASSNDIHIFEWRNGDWQSIHTLSEHDLPVTGLDWGTKTNRIVSCSQDKNAFVWTFDKNVWKPELVLVRFNRAATYVKWSPLENKFAVGSGAKLVSVCYYEKENDWWVSKQIKKPIRSTVTCLDWHSNNVLLAVGSCDFKCRVFSAYVKEVDEKPSPNPWGQKMPFGQLMSEYSVGGWVHRVAFSPSGCRLAFVSHDSSVSFVDSTVDSQKVQNLLTIHLPFTTVEWITENSVVTAGHDCSPVLFVVSQDVLKEVCKLDVPSAAKSSTVNSALQLFKNIDRNNAAEKINVALKTLHQNRITQILPHSGTVGNVVKFTTCGTDGIVALWDLKNHPSLV” reads “not soluble”; that for “MGSDKIHHHHHHMHQTILHAFSQHAASCYPNECCGLLIRQGNKAQYVKCENKATNKADEFVIDPQQYADIEELGAIIGICHSHPDASSKPSDRDRAMCEASGLPWHILSWPDGDLRTIVPTGERKSLLNRPFVHGVWDCYSCVRDWYSEVQQIHLPDFARQDGWWEGEQELYLDNFAKAGFVALPNINLADLQIGDVFLMQIQSQRVNHAAVYVGEGKILHHLYGRLSRYDIYGGYWQRNTRLIVRHCQ”, “not soluble”; that for “MAHHHHHHMPLIVPTPPAHPAQSPNQANGELLGRLMKLYRALCVRHDELGQEVILNDILAFLTRTHQHDMAESVIATCEISLPHRSNNQAARYFYYVGLTRALRLEYVDANQCLQQALRKAPERAFGFRVAATKLALVVQLLLGEIPPRSDFLQKDMRESLSPYLQLASCVRFGQLSRFMSILQQHKNIFEHDRTYSLILRVRQHVIKTGLRRICHAYSRISIPDICFKLSMENPADAEYIIAKAIRDGVIDAVIDHEKGHLISSDTVDVYSTSEPLLALQRRIQFLNVTHNDAKRSMRYTAADPELEEERRKVDREEMDSALRAALEDEELGGTDFEDGLP”, “not soluble”. Turning to “MGSDKIHHHHHHMSSIYSAPILVFDVNETLLDIDTLTPLFTRLFGDENRLREWFAQLVLYSQTMTLSGLYTPFGELGVGALQMTADIHAVTLTEEDIQEFKQRMSETPAHPDVIPALTKLRDAGFRLVTLTNSAPSTSPTRLEKAGLSEFFEQNFSVDSVRQFKPAPAIYQMVASELSVETSELCLVACHIWDTIGAQAAGCQGAFVTRPYNALLSAPNVPKPDFIASDLITLAEHIINHQSS”, the “soluble on expression in E. coli” value is listed as “not soluble”.
